# In patent US20120259096A1:
# Positions count from the first letter of the chain named.
# B1: CA167_00983 (antibody, from another filing, rabbit IgG1, V domains shown)
# VH: QSVEESGGRLVTPGTPLTLTCTVSGFSLSNYAMSWVRQAPGKGLEWIGIIGKSGSTAYASWAKGRFTISRTSTTVDLEITSPTTEDTATYFCVRFVLLWGPGTLVTVS
# VL: AQVLTQTASPVSAAVGGTVTINCQSSQSVYKNNDLAWYQQKPGQPPKLLIYYASTLASGVSSRFKGSGSGTEFTLTISDAQCDDAATYYCLGSYDCSSADCNAFGGGTKVVVK
# B2: CA167_01080 (antibody, from another filing, rabbit IgG1, V domains shown)
# VH: QSLEESGGRLVTPETPLTLTCTASGIDLSKWPMTWVRQAPGKGLEWIGIIGRSGSTNYASWAKGRFTISKTSTTVDLKMTSPTTEDTATYFCARGGSYYDLWGQGTLVTVS
# VL: B1 VL with G17N, N22T, Y30W, A36S, P42L, G66A, E72Q, A80V, A86G, L91V
# Legend:
# [1] = biological target: human Nav1.7 channel (type IX voltage-gated sodium channel alpha subunit) (human) (UniProt Q15858); assay: cell-based or functional assay
# [2] = biological target: recombinant rat Nav1.7 channels expressed in HEK cells (rat) (UniProt O08562); assay: cell-based or functional assay
# recombinant rat Nav1.7 channels expressed in HEK cells (rat), sequence (O08562 whole entry): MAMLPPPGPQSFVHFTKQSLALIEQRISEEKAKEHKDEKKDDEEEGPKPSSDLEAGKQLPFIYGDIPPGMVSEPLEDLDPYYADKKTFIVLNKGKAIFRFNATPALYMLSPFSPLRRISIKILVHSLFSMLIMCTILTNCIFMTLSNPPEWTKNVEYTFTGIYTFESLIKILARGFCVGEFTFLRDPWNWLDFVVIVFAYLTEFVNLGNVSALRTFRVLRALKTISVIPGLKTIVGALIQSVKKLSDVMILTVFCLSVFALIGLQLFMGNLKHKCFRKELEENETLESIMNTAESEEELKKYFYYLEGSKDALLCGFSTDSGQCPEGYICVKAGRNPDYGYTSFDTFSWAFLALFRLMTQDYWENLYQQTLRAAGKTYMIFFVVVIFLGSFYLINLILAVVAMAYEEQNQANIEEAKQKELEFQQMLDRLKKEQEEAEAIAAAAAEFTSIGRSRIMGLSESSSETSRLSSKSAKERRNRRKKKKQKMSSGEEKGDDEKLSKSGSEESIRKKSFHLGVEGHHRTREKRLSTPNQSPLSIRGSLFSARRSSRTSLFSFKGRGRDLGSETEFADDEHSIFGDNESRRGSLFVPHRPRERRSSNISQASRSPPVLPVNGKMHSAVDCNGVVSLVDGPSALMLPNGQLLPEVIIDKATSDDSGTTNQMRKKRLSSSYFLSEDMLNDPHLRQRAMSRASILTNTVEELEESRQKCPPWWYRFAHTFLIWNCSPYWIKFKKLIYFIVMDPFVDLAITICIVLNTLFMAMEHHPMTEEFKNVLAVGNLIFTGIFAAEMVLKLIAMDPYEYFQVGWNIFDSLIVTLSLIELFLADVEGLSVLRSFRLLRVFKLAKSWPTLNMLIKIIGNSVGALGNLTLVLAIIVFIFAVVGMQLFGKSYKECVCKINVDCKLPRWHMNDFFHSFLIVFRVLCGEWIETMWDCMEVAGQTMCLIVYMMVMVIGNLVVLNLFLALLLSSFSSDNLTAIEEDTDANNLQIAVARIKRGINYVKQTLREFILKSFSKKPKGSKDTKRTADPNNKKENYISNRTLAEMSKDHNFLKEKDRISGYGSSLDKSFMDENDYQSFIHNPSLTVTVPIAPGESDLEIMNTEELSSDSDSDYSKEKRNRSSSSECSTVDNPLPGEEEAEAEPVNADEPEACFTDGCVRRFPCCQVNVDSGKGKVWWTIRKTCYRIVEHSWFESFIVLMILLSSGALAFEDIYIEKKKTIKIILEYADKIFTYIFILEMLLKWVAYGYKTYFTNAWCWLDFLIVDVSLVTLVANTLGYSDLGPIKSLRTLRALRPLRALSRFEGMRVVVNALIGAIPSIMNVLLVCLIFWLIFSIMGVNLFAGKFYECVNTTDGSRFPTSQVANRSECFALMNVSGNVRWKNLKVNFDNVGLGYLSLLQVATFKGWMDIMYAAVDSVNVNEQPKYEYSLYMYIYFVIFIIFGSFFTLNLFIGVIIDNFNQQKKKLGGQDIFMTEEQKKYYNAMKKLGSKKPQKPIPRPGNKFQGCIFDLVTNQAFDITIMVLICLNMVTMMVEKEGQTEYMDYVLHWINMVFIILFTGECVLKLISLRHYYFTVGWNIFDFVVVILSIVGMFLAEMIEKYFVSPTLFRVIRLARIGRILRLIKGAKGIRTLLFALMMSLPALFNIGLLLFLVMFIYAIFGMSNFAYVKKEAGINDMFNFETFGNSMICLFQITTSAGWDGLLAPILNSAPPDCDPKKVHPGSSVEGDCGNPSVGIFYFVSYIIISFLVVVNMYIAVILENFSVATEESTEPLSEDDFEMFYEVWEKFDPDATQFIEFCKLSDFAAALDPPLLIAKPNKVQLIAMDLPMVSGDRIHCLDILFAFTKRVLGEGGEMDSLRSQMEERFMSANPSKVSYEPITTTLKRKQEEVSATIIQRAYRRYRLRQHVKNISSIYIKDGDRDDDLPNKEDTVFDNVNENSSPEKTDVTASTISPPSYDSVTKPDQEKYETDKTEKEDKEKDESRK
Binder,"Nav1.7 inhibition (%), automated patch clamp on HEK cells, antibody at 25 µg/ml [1]","inhibition of Nav1.7 currents, automated patch clamp on HEK cells, antibody at 25 µg/ml [2]"
B1,41%,
B2,46%,26%
